# IntAct's records for PubMed 19570982
# B1: Fibulin-5 (Homo sapiens), Q9UBX5 (parent)
# chain: MPGIKRILTVTILALCLPSPGNAQAQCTNGFDLDRQSGQCLDIDECRTIPEACRGDMMCVNQNGGYLCIPRTNPVYRGPYSNPYSTPYSGPYPAAAPPLSAPNYPTISRPLICRFGYQMDESNQCVDVDECATDSHQCNPTQICINTEGGYTCSCTDGYWLLEGQCLDIDECRYGYCQQLCANVPGSYSCTCNPGFTLNEDGRSCQDVNECATENPCVQTCVNTYGSFICRCDPGYELEEDGVHCSDMDECSFSEFLCQHECVNQPGTYFCSCPPGYILLDDNRSCQDINECEHRNHTCNLQQTCYNLQGGFKCIDPIRCEEPYLRISDNRCMCPAENPGCRDQPFTILYRDMDVVSGRSVPADIFQMQATTRYPGAYYIFQIKSGNEGREFYMRQTGPISATLVMTRPIKGPREIQLDLEMITVNTVINFRGSSVIRLRIYVSQYPF
# Variants of: B1
# Settings: with eln_human ELN
row,effect of a mutation on the interaction,Variant
1,decreasing interaction,C217R
2,decreasing interaction,S227P
